Experimental data reported in patent US20250115669A1, “FGFR1/KLB Targeting Agonistic Antigen-Binding Proteins and Conjugates Thereof with GLP-1R Agonistic Peptides” (SANOFI, priority 2020, published 2025).

biological target: T1, human beta-Klotho (Homo sapiens, UniProt Q86Z14); experiment: SPR off-rate screening of antibody mutants (human beta-Klotho captured by anti-His antibody); assay type: binding; conditions: mean, n=3
T1 sequence (Q86Z14 1-1044): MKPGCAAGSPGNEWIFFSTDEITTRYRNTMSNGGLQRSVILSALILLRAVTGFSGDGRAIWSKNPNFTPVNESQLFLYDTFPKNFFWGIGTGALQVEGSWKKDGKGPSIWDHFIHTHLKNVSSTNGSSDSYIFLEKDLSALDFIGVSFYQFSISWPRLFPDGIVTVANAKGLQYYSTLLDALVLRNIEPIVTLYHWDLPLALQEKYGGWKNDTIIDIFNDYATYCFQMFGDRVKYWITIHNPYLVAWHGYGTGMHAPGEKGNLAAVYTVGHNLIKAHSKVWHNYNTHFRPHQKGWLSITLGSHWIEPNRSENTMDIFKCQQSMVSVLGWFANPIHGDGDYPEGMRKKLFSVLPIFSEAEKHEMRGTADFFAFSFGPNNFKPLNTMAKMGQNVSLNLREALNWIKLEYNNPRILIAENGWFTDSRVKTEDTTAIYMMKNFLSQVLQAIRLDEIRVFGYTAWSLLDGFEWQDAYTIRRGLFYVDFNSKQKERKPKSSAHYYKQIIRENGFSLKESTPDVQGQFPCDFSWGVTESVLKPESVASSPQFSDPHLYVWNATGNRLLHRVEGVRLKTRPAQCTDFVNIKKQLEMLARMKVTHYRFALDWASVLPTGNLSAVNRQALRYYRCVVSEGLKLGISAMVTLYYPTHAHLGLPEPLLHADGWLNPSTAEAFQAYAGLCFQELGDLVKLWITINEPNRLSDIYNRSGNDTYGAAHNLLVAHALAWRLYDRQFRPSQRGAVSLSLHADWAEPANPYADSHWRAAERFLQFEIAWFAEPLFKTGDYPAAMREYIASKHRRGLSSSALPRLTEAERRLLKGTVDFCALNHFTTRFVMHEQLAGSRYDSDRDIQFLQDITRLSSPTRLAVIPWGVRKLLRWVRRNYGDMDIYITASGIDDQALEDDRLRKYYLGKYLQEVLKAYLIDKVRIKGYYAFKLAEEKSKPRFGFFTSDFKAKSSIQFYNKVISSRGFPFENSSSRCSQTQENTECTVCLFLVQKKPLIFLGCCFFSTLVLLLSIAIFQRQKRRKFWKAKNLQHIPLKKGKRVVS
Method: Screening of antibody mutants for binding to human beta-Klotho was determined in a different SPR assay set up. Human beta-Klotho was affinity captured by an anti-His antibody (from His capture kit, GE Healthcare) that was immobilized to a series S CM5 chip (GE Healthcare) by amine reactive coupling as described above. The antibody samples were used as analytes at 50 nmol/L concentration. Association time was 240 sec and dissociation time was 300 sec. Chip surfaces were regenerated using the regeneration solution supplied with the His capture kit. The off-rates (kd) were determined using single exponential fitting in the Biacore 8K Evaluation Software version 1.1.1.7442 (GE Healthcare).

Row | Substance | koff human KLB
1 | Ab0212: IgG4 PE; 16H7 VL (N93E); 16H7 VH (I83T, D109Y) | 0.00185 s⁻¹
2 | Ab0204: IgG4 PE; 16H7 VL (D91T); 16H7 VH (M34V, I83T, D109E) | 0.00133 s⁻¹
3 | Ab0193: IgG4 PE; 16H7 VL; 16H7 VH (I83T, D109E) | 0.000337 s⁻¹
4 | Ab0192: IgG4 PE; 16H7 VL (D95E); 16H7 VH (M34V, I83T) | invalid fit
5 | Ab0307: IgG4 PE; 16H7 VL (D49Y, N93E); 16H7 VH (M34V, I83T, D109E) | 0.00118 s⁻¹
6 | Ab0234: IgG4 PE; 16H7 VL (N93S); 16H7 VH | 0.00011 s⁻¹
7 | Ab0187: IgG4 PE; 16H7 VL (N25S); 16H7 VH (M34V, I83T) | 0.000156 s⁻¹
8 | Ab0194: IgG4 PE; 16H7 VL (N25S); 16H7 VH (I83T, D109E) | 0.000402 s⁻¹
9 | Ab0203: IgG4 PE; 16H7 VL (D50E); 16H7 VH (M34V, I83T, D109E) | 0.00151 s⁻¹
10 | Ab0198: IgG4 PE; 16H7 VL (N93E); 16H7 VH (I83T, D109E) | 0.000346 s⁻¹
11 | Ab0186: IgG4 PE; 16H7 VL; 16H7 VH (M34V, I83T) | 0.000104 s⁻¹
12 | Ab0306: IgG4 PE; 16H7 VL (N25S, N93E); 16H7 VH (M34V, I83T, D109E) | 0.000288 s⁻¹
13 | Ab0216: IgG4 PE; 16H7 VL (D49Y); 16H7 VH (I83T, D109S) | 0.00984 s⁻¹
14 | Ab0199: IgG4 PE; 16H7 VL (D95E); 16H7 VH (I83T, D109E) | invalid fit
15 | Ab0219: IgG4 PE; 16H7 VL (N93E); 16H7 VH (I83T, D109S) | 0.000915 s⁻¹
16 | Ab0197: IgG4 PE; 16H7 VL (D91T); 16H7 VH (I83T, D109E) | 0.00167 s⁻¹
17 | Ab0190: IgG4 PE; 16H7 VL (D91T); 16H7 VH (M34V, I83T) | 0.000195 s⁻¹
18 | Ab0296: IgG4 PE; 16H7 VL (N25S, D50E); 16H7 VH (M34V, I83T, D109E) | 0.00137 s⁻¹
19 | Ab0309: IgG4 PE; 16H7 VL (D50E, N93E); 16H7 VH (M34V, I83T, D109E) | 0.00103 s⁻¹
20 | Ab0213: IgG4 PE; 16H7 VL (D95E); 16H7 VH (I83T, D109Y) | invalid fit
21 | Ab0202: IgG4 PE; 16H7 VL (D49Y); 16H7 VH (M34V, I83T, D109E) | 0.00161 s⁻¹
22 | Ab0208: IgG4 PE; 16H7 VL (N25S); 16H7 VH (I83T, D109Y) | 0.0021 s⁻¹

Row | Substance | koff human KLB
23 | Ab0386: IgG4 PE; 16H7 VL (D95S, W90F); 16H7 VH (M34V, F54W, I83T, D109E) | no binding
24 | Ab0214: IgG4 PE; 16H7 VL; 16H7 VH (I83T, D109S) | 0.00121 s⁻¹
25 | Ab0211: IgG4 PE; 16H7 VL (D91T); 16H7 VH (I83T, D109Y) | invalid fit
26 | Ab0210: IgG4 PE; 16H7 VL (D50E); 16H7 VH (I83T, D109Y) | invalid fit
27 | Ab0200: IgG4 PE; 16H7 VL; 16H7 VH (M34V, I83T, D109E) | 0.000369 s⁻¹
28 | Ab0207: IgG4 PE; 16H7 VL; 16H7 VH (I83T, D109Y) | 0.00188 s⁻¹
29 | Ab0302: IgG4 PE; 16H7 VL (D50E, D91T); 16H7 VH (M34V, I83T, D109E) | invalid fit
30 | Ab0300: IgG4 PE; 16H7 VL (D49Y, D91T); 16H7 VH (M34V, I83T, D109E) | invalid fit
31 | Ab0295: IgG4 PE; 16H7 VL (N25S, D49Y); 16H7 VH (M34V, I83T, D109E) | 0.00157 s⁻¹
32 | Ab0220: IgG4 PE; 16H7 VL (D95E); 16H7 VH (I83T, D109S) | invalid fit
33 | Ab0189: IgG4 PE; 16H7 VL (D50E); 16H7 VH (M34V, I83T) | 0.000387 s⁻¹
34 | Ab0188: IgG4 PE; 16H7 VL (D49Y); 16H7 VH (M34V, I83T) | 0.00084 s⁻¹
35 | Ab0218: IgG4 PE; 16H7 VL (D91T); 16H7 VH (I83T, D109S) | 0.00668 s⁻¹
36 | Ab0215: IgG4 PE; 16H7 VL (N25S); 16H7 VH (I83T, D109S) | 0.00125 s⁻¹
37 | Ab0196: IgG4 PE; 16H7 VL (D50E); 16H7 VH (I83T, D109E) | 0.00194 s⁻¹
38 | Ab0191: IgG4 PE; 16H7 VL (N93E); 16H7 VH (M34V, I83T) | 0.000144 s⁻¹
39 | Ab0201: IgG4 PE; 16H7 VL (N25S); 16H7 VH (M34V, I83T, D109E) | 0.000336 s⁻¹
40 | Ab0205: IgG4 PE; 16H7 VL (N93E); 16H7 VH (M34V, I83T, D109E) | 0.000334 s⁻¹
41 | Ab0195: IgG4 PE; 16H7 VL (D49Y); 16H7 VH (I83T, D109E) | 0.00267 s⁻¹
42 | Ab0297: IgG4 PE; 16H7 VL (D49Y, D50E); 16H7 VH (M34V, I83T, D109E) | 0.00156 s⁻¹
43 | Ab0217: IgG4 PE; 16H7 VL (D50E); 16H7 VH (I83T, D109S) | 0.002 s⁻¹
44 | Ab0209: IgG4 PE; 16H7 VL (D49Y); 16H7 VH (I83T, D109Y) | invalid fit

test system: not listed separately; experiment: SAR16 (16H7) standalone and in combination with dulaglutide in DIO NASH cynomolgus monkeys; assay type: in vivo, Cynomolgus monkey (Macaca fascicularis); conditions: DIO NASH cynomolgus monkeys
Method: Both were tested as single administration and in combination of both in the most relevant animal model that reflects the intended human population. Thus, the pharmacokinetic and pharmacodynamics of varying doses of the compounds were explored in the high-fat diet-induced obese and insulin resistance cynomolgus monkey model with diagnosed non-alcoholic steatohepatitis (NASH), mimicking the adult human NASH insulin resistance phenotype.
Cynomolgus monkey (Macaca fascicularis) was selected as the test species of choice for more meaningful results that were translatable to humans. More than 50 male monkeys were trained to identify 40 HFD induced obese NASH monkeys for the study.
There was a run-in period during which monkeys were injected subcutaneously with vehicle every third day. Food intake (calculated as TEI) and water intake were measured daily along with twice-weekly body weight evaluation and baseline value determination for metabolic biomarkers, safety biomarkers, IV glucose tolerance test (IVGTT), liver biopsy for gene expression analysis, and profile for glucose, insulin, and plasma lipids.
For the dosing period 40 trained monkeys (n=10 per group) were selected and stratified for body weight, fasting plasma glucose (FPG), and fasting plasma insulin (FPI) and insulin response from baseline during the IVGTT. All treatments were administered subcutaneously for […]. The dosing period was designed as a four-arm, dose-ramping study, and monkeys were treated with either vehicle, SAR10, SAR16, or a combination of both SAR10 and SAR16.
(§1) The SAR10-treated monkeys were dosed every 3rd day at 60 μg/kg initiated by dose ramping (3 dose steps, week 1: 20 μg/kg, week 2: 40 μg/kg, week 3 to runout: 60 μg/kg). The SAR16-treated monkeys were dosed at 1 mg/kg on day +1, 3 mg/kg on day +16, and then repeat maintenance dose of 3 mg/kg on day +46. The Combo-treated monkey were dosed with both SAR10 and SAR16 as the same pattern of the SAR10 and SAR16 treated monkeys.
Other parameters were also measured during the study, including food intake, body fat, plasma ketone bodies, as well as blood glucose control (glucose profile, fed, fasting plasma glucose and during ivGTT). One group received the vehicle. The compounds were administered subcutaneously (SC) (12 weeks “evaluation phase” plus run-out) to obese and NASH male cynomolgus macaques (Macaca fascicularis).
as §1, with “at” for “as”

Row | Substance | body weight (in words) | food intake
45 | dulaglutide [SAR10] | Significant reductions in body weight | Reduction of food intake

same assay, conditions: compared to the vehicle treated group

Row | Substance | fasting glucose and fed glucose levels (12:30 and 18:30) | ivGTT glucose AUC | ivGTT plasma insulin AUC
46 | dulaglutide [SAR10] | No significant change | significantly decreased | significant increase

same assay, conditions: day +76 compared to baseline (day −27)

Row | Substance | blood glucose levels, plasma profile | insulin, plasma profile
47 | dulaglutide [SAR10] | appreciable decreases | decreased

same assay, conditions: day +76 versus day −27

Row | Substance | HDL levels, plasma profile | T-ketones levels, plasma profile | TC and LDL levels, plasma profile | TG values, plasma profile
48 | dulaglutide [SAR10] | slightly increased | quite stable | decreased | quite stable

same assay, conditions: measured on days +81/+82/+83/+84; DIO NASH cynomolgus monkeys

Row | Substance | liver fat fraction change (MRI) [%]
49 | dulaglutide [SAR10] | −25.2

same assay, conditions: more monkeys improved compared to vehicle treated group

Row | Substance | NASH steatosis score
50 | dulaglutide [SAR10] | improved steatosis score
